Laboratory results taken from paper PMC3159454.

Target: Elk-1 ETS domain (Elk-ets), recombinant
Test: SEC

stoichiometry N: 2
Substance: Elk-1 ETS domain (Elk-ets), recombinant (domain or fragment)
